The labels stand for the following.
B1: Receptor-type tyrosine-protein phosphatase R (Homo sapiens), Q15256 (parent)
chain: MRRAVCFPALCLLLNLHAAGCFSGNNDHFLAINQKKSGKPVFIYKHSQDIEKSLDIAPQKIYRHSYHSSSEAQVSKRHQIVNSAFPRPAYDPSLNLLAMDGQDLEVENLPIPAANVIVVTLQMDVNKLNITLLRIFRQGVAAALGLLPQQVHINRLIGKKNSIELFVSPINRKTGISDALPSEEVLRSLNINVLHQSLSQFGITEVSPEKNVLQGQHEADKIWSKEGFYAVVIFLSIFVIIVTCLMILYRLKERFQLSLRQDKEKNQEIHLSPITLQPALSEAKTVHSMVQPEQAPKVLNVVVDPQGRGAPEIKATTATSVCPSPFKMKPIGLQERRGSNVSLTLDMSSLGNIEPFVSIPTPREKVAMEYLQSASRILTRSQLRDVVASSHLLQSEFMEIPMNFVDPKEIDIPRHGTKNRYKTILPNPLSRVCLRPKNVTDSLSTYINANYIRGYSGKEKAFIATQGPMINTVDDFWQMVWQEDSPVIVMITKLKEKNEKCVLYWPEKRGIYGKVEVLVISVNECDNYTIRNLVLKQGSHTQHVKHYWYTSWPDHKTPDSAQPLLQLMLDVEEDRLASQGRGPVVVHCSAGIGRTGCFIATSIGCQQLKEEGVVDALSIVCQLRMDRGGMVQTSEQYEFVHHALCLYESRLSAETVQ

This experiment covers variants of B1. The settings on record: with mk14_human MAPK14, Q16539.
Chain of mk14_human MAPK14, Q16539 (Q16539 whole entry): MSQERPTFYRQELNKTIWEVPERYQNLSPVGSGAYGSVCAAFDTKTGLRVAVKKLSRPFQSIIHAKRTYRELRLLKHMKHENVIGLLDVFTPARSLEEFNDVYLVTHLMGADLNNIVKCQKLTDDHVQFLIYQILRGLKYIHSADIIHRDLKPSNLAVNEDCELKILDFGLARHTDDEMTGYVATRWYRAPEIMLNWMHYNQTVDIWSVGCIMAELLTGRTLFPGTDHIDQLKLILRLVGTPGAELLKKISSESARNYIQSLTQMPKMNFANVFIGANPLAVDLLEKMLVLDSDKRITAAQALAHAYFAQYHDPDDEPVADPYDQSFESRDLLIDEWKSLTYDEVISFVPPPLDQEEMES
Regarding S339E, the “effect of a mutation on the interaction” value is “disrupting interaction”.

Values taken from IntAct's records for PubMed 10601328.
